From PMC4764128

Biological target: Dup A502,Y503 KIT D4D5 fragment (human) (UniProt P10721)
Experiment: SEC-MALS

Question: How did the Kd turn out when “Dup A502,Y503 KIT D4D5 fragment (from UniProt P10721 308-514) (domain or fragment)” was run?
Answer: 730 µM
